Measured values reported in PMC10424185, “C-2 Thiophenyl Tryptophan Trimers Inhibit Cellular Entry of SARS-CoV-2 through Interaction with the Viral Spike (S) Protein” (Journal of Medicinal Chemistry, 2023).

Biological target: S:D614G protein (SARS-CoV-2 spike with the D614G mutation, form used for cryoEM) (SARS-CoV-2 | not stated)
Assay: cryo-EM structure

In the case of “S:D614G protein (SARS-CoV-2 spike with the D614G mutation, form used for cryoEM)”, the stoichiometry N is reported as 3.
